Source: paper PMC4441150, “Synergistic function of four novel thermostable glycoside hydrolases from a long-term enriched thermophilic methanogenic digester” (Frontiers in Microbiology, 2015)

What was measured:
Assay in all cases: purified protein
[1] = substrate: O=[N+]([O-])c1ccc(O[C@@H]2OC[C@@H](O)[C@H](O)[C@H]2O)cc1; format: biochemical, bacterium enrichment culture; details: 1-50 mM substrate
[2] = substrate: O=[N+]([O-])c1ccc(O[C@@H]2O[C@H](CO)[C@@H](O[C@@H]3O[C@H](CO)[C@@H](O)[C@H](O)[C@H]3O)[C@H](O)[C@H]2O)cc1; format: biochemical, bacterium enrichment culture; details: optimal conditions of the enzyme (optimum pH 6.0, 65°C), 1-50 mM substrate
[3] = substrate: O=[N+]([O-])c1ccc(O[C@@H]2O[C@H](CO)[C@@H](O)[C@H](O)[C@H]2O)cc1; details: 1-50 mM substrate
[4] = substrate: O=[N+]([O-])c1ccc(O[C@@H]2O[C@@H](CO)[C@H](O)[C@H]2O)cc1; format: biochemical, bacterium enrichment culture; details: optimal conditions of the enzyme (optimum pH 4.5, 60°C), 1-50 mM substrate
[5] = optimal conditions of the enzyme (optimum pH 6.0, 65°C)
[6] = optimal conditions of the enzyme (optimum pH 6.0, 65°C), pH 6.0, 65.0 °C
[7] = optimal conditions of the enzyme (optimum pH 4.5, 60°C)
[8] = optimal conditions of the enzyme (optimum pH 4.5, 60°C), pH 4.5, 60.0 °C

Row | Protein | Km [1, 5] [mM] | kcat [1, 5] [s⁻¹] | kcat/Km [1, 5] [M⁻¹ s⁻¹] | Km [2] [mM] | kcat [2] [s⁻¹] | kcat/Km [2] [M⁻¹ s⁻¹] | Km [3, 6] [mM] | kcat [3, 6] [s⁻¹] | kcat/Km [3, 6] [M⁻¹ s⁻¹] | Km [1, 7] [mM] | kcat [1, 7] [s⁻¹] | kcat/Km [1, 7] [M⁻¹ s⁻¹] | Km [4] [mM] | kcat [4] [s⁻¹] | kcat/Km [4] [M⁻¹ s⁻¹] | Km [3, 8] [mM] | kcat [3, 8] [s⁻¹] | kcat/Km [3, 8] [M⁻¹ s⁻¹]
1 | Bgl8520 (bacterium enrichment culture) (protein, no signal peptide; pET-28a(+) in E. coli BL21 (DE3), Ni-NTA purified) MNKHNKGGLLMKFPENFVWGAAAASYQIEGAAYEDGKGLSVWDIFTRQKGAIENGDNGDIACNHYHRYKEDVQLMKELGLQAYRLSLSWPRILANGTGKVNQKGLDFYDKLIDELLENGIEPYITLFHWDYPYELYKKGGWLNPDSPDWFAEYTEVVVQKLSDRVKNWITINEPQVFVNLGHKDGVHAPGLKLGMEDLLQISHNVLLAHGKGARVIRETSVQDCRIGLAPSDSPVFPATKSEENIQAARRASFSVEDKGLWAINWWMDPVILGRYPEEGLKIFEEYLPEIKTDDFKIISEPIDFFGVNIYQGVCVKLDDKGQAVPAERKVGYARNAYYWPITPEALYWGPRFYYERYKKPVIITENGMSNVDWVAVDGKVHDPQRIDFTNRYLRELQKAGEDGVDIQGYFHWSLMDNFEWAQGYLERFGLIYVDFETGERIIKDSAYWYKKVIETKGEALYA | 0.7 | 0.3 | 430 | 2.7 | 8.2 | 3000 | 0.9 | 124 | 140000 |  |  |  |  |  |  |  |  | 
2 | Xyl522 (bacterium enrichment culture) (protein, no signal peptide; pET-28a(+) in E. coli BL21 (DE3), Ni-NTA purified) MVYKMLFQRSDLPMEERIKDLISRLTLEEKVSQLLYDSAAIPHLGIPEYNWWNECLHGVARAGTATVFPQAIGMAASFNAPLLQQVAEVIATEARAKHHEAARHGDRGIYKGLTFWTPNINIFRDPRWGRGQETYGEDPYLTAQLGIAFVKGLQGDHPKYLKAAACAKHFAVHSGPESLRHSFDARCSQKDLYETYLPAFRALVTEAKVESVMGAYNRTNGEPCCASPTLLQKILREDWGFEGHVVSDCGAIHDIHAHHKVTGSPEESAALAVKNGCDLNCGRVYPALVEAVAQGLISEEEIDRALARLLRTKFKLGLFDPEEEVPYAQIPYEVVACDEHRSLAREMARQSMVLLKNENNLLPLSKELKTVAVIGPNADSRKVLLGNYFGTSSQLVTALEGIRRKLEPNCRVLYAEGCDLTTTRPGYWGNSPREGFAEALAVAERADAVIMCMGVSPDLEGEEGAAANSDGGGDRLTLELPGMQNELIKEVAALGKPLVLVLFSGSPLAVTWAQENVPAIIQAWYPGEEGGNALADIIFGDYNPAGRLPITFVKSLDQLPPFTDYSMEGRTYRYLKEEPLYPFGYGLSYTSFTYSNLQAPAELNIGEELVVQVDVENTGARAGDEVVQLYIRHRDASAAVPHHSLQGFARIRLEPGEKRTVTFRLAPRQLAVFDEEGRCLVEPGAVELLAGGSQPDARSEELTGQKPLLGQVLLVGETLELPR |  |  |  |  |  |  |  |  |  | 8.8 | 14.3 | 1600 | 10.0 | 3.2 | 320 | 15.7 | 1.4 | 89.2
